Source: US20080176814, “DNA-BASED APTAMERS FOR HUMAN CATHEPSIN G” (GENTIUM SPA, published 2008)
Read-outs that look alike come from different tables or passages of the source.

Experiments:
[1] = molecular target: T1, Cathepsin G (Homo sapiens) (UniProt P08311); conditions: affinity chromatography; same buffer
T1 sequence: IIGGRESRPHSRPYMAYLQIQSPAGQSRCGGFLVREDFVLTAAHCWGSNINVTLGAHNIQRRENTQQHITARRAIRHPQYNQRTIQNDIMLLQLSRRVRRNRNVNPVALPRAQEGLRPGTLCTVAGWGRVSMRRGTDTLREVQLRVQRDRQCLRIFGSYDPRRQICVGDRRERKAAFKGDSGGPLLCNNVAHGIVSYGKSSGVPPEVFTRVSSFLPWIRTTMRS

[2] = molecular target: T1, Cathepsin G (Homo sapiens); conditions: affinity chromatography; same buffer; remark: listed apart in the source
[3] = molecular target: T1, Cathepsin G (Homo sapiens); experiment: SPR
[4] = molecular target: T1, Cathepsin G (Homo sapiens); experiment: SELEX; conditions: cycle 9 yield (0.4% at cycle 1); 30 mM Tris pH 7.5, 150 mM NaCl, 5 mM KCl, 5 mM MgCl2
Cathepsin G [5] = molecular target: T2, Cathepsin G (Homo sapiens, UniProt P08311 P08311:21-244); conditions: affinity chromatography; G-quartet control
T2 sequence: T1 sequence

Cathepsin G [6] = molecular target: T2, Cathepsin G; experiment: affinity chromatography; same buffer; conditions: tags: Europa Bioproducts or Calbiochem; from human neutrophils (SPR, amine-coupled to CM5 chip)
Method: The affinity of the oligonucleotides was determined by affinity chromatography as performed in the selection. Different aliquots of each oligonucleotide were previously incubated with 15 μg of Cathepsin G in ice. The solution was then loaded in the min-chromatography column used for the selection and washed with 15 volumes of buffer IB. After one hour incubation, it was washed with six volumes of buffer EB. Fractions of the same volumes were collected and counted.
We evaluated the oligonucleotide binding to cathepsin G by affinity chromatography in analogy with the selection method. The affinity of the aptamer CG51 was firstly compared with AC and GT oligonucleotides of the same length that, as mentioned, are clearly unable to fold into any structure characterised by Watson-Crick base pairs or G quartets formation. The complementary sequence of CG51, called cmpCG51, was included as a control.

[7] = relative potency vs GT 100, 25 C

AC [(AC)30] was tested, and the Kd [1] was 0.8 nM.

Work on AC [(AC)60] yielded a Kd [2] of 1.2 nM.

With AC [AC 40] the binding signal [3, 7] was 0.0047.

AC [AC 80] was tested, and the binding signal [3, 7] was 0.017.

With “CGTACGGAATTCGCTAGCNNNNNNNNNNNNNNNNNNNNNNNNNNNNNNNNNNNNNNNNNNNNNNNNNNNNNNNNNNNNGGATCCGAGCTCCACGTG [cycle 9 selected pool]” the binding signal [4] was 42%.

GT [(GT)10 / GT 20] was tested, and the Kd [2] was 2 nM.

With GT [(GT)20 / GT 40] the Kd [2] was 1.5 nM and the binding signal [3, 7] was 0.016.

GT [(GT)30 / GT 60] was tested, and the Kd [1] was 1 nM and the binding signal [3, 7] was 0.144.

In the case of GT [(GT)40 / GT 80], the Kd [2] is reported as 1.2 nM and the binding signal [3, 7] is reported as 0.32.

For GT [GT 30], the binding signal [3, 7] was 0.002.

Molecule GT [GT 100] has a binding signal ([3]; relative potency, reference standard, HBS-EP pH 7.4, 25 C) of 1.

THR thrombin aptamer showed a Kd (Cathepsin G [5]) of 4 nM.

B1: cmpCG51 (ssDNA)
DNA: ACACGAATACCCTCTGTGCTCAGCGTAACACCCAAGCGTATACCCACATATCACACGTTG
modifications: [NONE]
B1 was tested, and the Kd (Cathepsin G [6]) was 0.6 nM.
